This is an account of results in article PMC11135836.

The subject of the data set is T1, RstA (Escherichia coli LF82 (adherent-invasive)?), ORF:9fe818c8.
T1 sequence: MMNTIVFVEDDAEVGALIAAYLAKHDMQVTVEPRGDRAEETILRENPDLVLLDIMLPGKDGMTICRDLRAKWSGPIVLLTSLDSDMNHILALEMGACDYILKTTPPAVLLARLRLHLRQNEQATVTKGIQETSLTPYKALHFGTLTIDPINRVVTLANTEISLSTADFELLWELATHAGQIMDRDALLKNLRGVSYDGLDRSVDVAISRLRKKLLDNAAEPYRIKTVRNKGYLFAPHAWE
Kind of data set: EMSA. Particulars: EMSA: 40 ng PCR fragment, 0-2 uM RstA, 20 uL; 1 mM Tris-HCl pH 7.5, 0.2 mM DTT, 5 mM MgCl2, 10 mM KCl, 10% glycerol, 30 mM acetyl phosphate; 25 C 30 min …. Background: Mobility shift assays separate free from complexed probe on a gel.

Consider “ATGACGAAAGGACTACAGCGAAATATTTTTTATATGCATTATTAGTAAGTTAGCACCATTTGTATGATTTTTTAAAATTGTGCAATAAAAACCAAATGTACAACTTTTCTATCATTTATAAACTTAATAAAACCTTAAGGTTAACATTTTAATATAACGAGTTGCATTTAGTTACATGTTTAACACTTGATTTAAGATTTGTAATGGCTAGATTGAAATCAGATGTAATCCATTAGTTTTATATTTTACCCATTTAGGGCTGATTTATTACTACACACA (double strand) [csgD promoter]”, for which the binding result was “binds”. The entry for “CAAGCAAAAGCCTGGTTCCGCCGATTTATCGCTGCGGCAAATAACGCAGCGGGTTTACGGATTTCCCCTTGTAACGAATTTCAAAATGCAAGCGTGTTGAACTGGTTCCGGTGCTACCCATGGTTGCTATTTTTTGCCCCGCCTTCACTTCTTGTTGTTCCCGGACCAGCATTGTGTCGTTATGGGCGTAGG (double strand) [rpoS promoter (negative control)]” is “no binding”; for “TGCGCAGTTATTCTACCGCTTTGTAAGTAGTAAAATAGTTAACACGATCAAGACTACTATTATTGGTAGCTAAATTTTCCTTAAGTCACAATACGTTATTATCAATGCTGTAATTTATTCAGCGTTTGTACATATCGTTACACGCTGAAACCAACCACTCACGGAAGTCTGCCATTCC (double strand) [asr promoter]” it is “binds”.
